{"source": "paper PMC9601964", "biological_target": "T1, RihR (XRE-family regulator) (Azorhizobium caulinodans ORS571) (UniProt A8IKA5)", "T1 sequence": "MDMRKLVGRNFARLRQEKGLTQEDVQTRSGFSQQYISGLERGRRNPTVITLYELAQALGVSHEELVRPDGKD", "assay": "EMSA", "details": "50 mM Tris-HCl pH 8.3, 0.25 M KCl, 2.5 mM DTT, 5 mM MgCl2, 0.25 mg/mL BSA, 0.05 mg/mL poly(dI-dC), 2.5 mM EDTA, 1% glycerol; 20 uL, 20 min, room temperature; 6%"}
{"sequence": "CGGAATTCATCGCGGTGGTATTTTTGCGAGGAAGGCCGCGTTGGAAAACGATAGTCGGTGCTCGTTCATGCCGGCAAATGAGAAGATCGCCCATAGGTATGCAAAAATGATATGATAACAGCTGACCAGCTTTAGCCCGTGCGGACGAGGGGGAGAGGATGCGTTTCAGTCATCTAGAGC (double strand) [non-specific control promoter (Pcontrol)]", "values": [{"measurement": "binding", "value": "no binding"}]}
